B1: ATL3 (parent)
chain: QELEEEIKELYENFCKHNGSKNVF
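Note: lentivirally expressed fusions sorted by FACS into six bins by GFP to DsRed ratio, PSI derived from sequencing read proportions per bin multiplied by bin number.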

Variants of: B1
Experiment: protein stability index of a GFP-peptide fusion (GPS, HEK-293T) (PSI 1-6); higher = more stable
Conditions: c terminus: a fixed tail appended
QELEEEIKILYENFCKHNGSKNVF [E9I] gave a protein stability index of 1.95.
With QELEEEIKCLYENFCKHNGSKNVF [E9C] the protein stability index was 2.69.
For QELEEEIKRLYENFCKHNGSKNVF [E9R], the protein stability index was 2.59.
With QELEEEIKMLYENFCKHNGSKNVF [E9M] the protein stability index was 2.47.
QELEEEIKVLYENFCKHNGSKNVF [E9V] gave a protein stability index of 2.4.
QELEEEIKPLYENFCKHNGSKNVF [E9P] gave a protein stability index of 3.24.
QELEEEIKFLYENFCKHNGSKNVF [E9F] gave a protein stability index of 1.86.
In the case of QELEEEIKALYENFCKHNGSKNVF [E9A], the protein stability index is reported as 2.37.
For QELEEEIKLLYENFCKHNGSKNVF [E9L], the protein stability index was 1.64.
In the case of QELEEEIKWLYENFCKHNGSKNVF [E9W], the protein stability index is reported as 2.41.
With QELEEEIKDLYENFCKHNGSKNVF [E9D] the protein stability index was 3.39.
In the case of QELEEEIKYLYENFCKHNGSKNVF [E9Y], the protein stability index is reported as 2.09.
Variant QELEEEIKSLYENFCKHNGSKNVF [E9S] has a protein stability index of 2.39.
In the case of QELEEEIKNLYENFCKHNGSKNVF [E9N], the protein stability index is reported as 2.77.
QELEEEIKTLYENFCKHNGSKNVF [E9T] gave a protein stability index of 2.59.
Work on QELEEEIKKLYENFCKHNGSKNVF [E9K] yielded a protein stability index of 2.38.
QELEEEIKGLYENFCKHNGSKNVF [E9G] gave a protein stability index of 2.44.
For QELEEEIKHLYENFCKHNGSKNVF [E9H], the protein stability index was 2.27.
In the case of QELEEEIKQLYENFCKHNGSKNVF [E9Q], the protein stability index is reported as 2.22.
For QELEEEIKELYENFCLHNGSKNVF [K16L], the protein stability index was 3.09.
Variant QELEEEIKELYENFCMHNGSKNVF [K16M] has a protein stability index of 2.79.
With QELEEEIKELYENFCRHNGSKNVF [K16R] the protein stability index was 2.73.
QELEEEIKELYENFCAHNGSKNVF [K16A] gave a protein stability index of 3.17.
For QELEEEIKELYENFCGHNGSKNVF [K16G], the protein stability index was 3.51.
For QELEEEIKELYENFCEHNGSKNVF [K16E], the protein stability index was 3.81.
Work on QELEEEIKELYENFCDHNGSKNVF [K16D] yielded a protein stability index of 3.53.
With QELEEEIKELYENFCYHNGSKNVF [K16Y] the protein stability index was 2.49.
In the case of QELEEEIKELYENFCVHNGSKNVF [K16V], the protein stability index is reported as 3.15.
In the case of QELEEEIKELYENFCSHNGSKNVF [K16S], the protein stability index is reported as 2.99.
In the case of QELEEEIKELYENFCQHNGSKNVF [K16Q], the protein stability index is reported as 3.11.
QELEEEIKELYENFCNHNGSKNVF [K16N] showed a protein stability index of 2.36.
Work on QELEEEIKELYENFCWHNGSKNVF [K16W] yielded a protein stability index of 2.91.
With QELEEEIKELYENFCPHNGSKNVF [K16P] the protein stability index was 3.88.
In the case of QELEEEIKELYENFCCHNGSKNVF [K16C], the protein stability index is reported as 3.43.
In the case of QELEEEIKELYENFCTHNGSKNVF [K16T], the protein stability index is reported as 3.03.
QELEEEIKELYENFCHHNGSKNVF [K16H] gave a protein stability index of 2.74.
QELEEEIKELYENFCIHNGSKNVF [K16I] gave a protein stability index of 2.86.
QELEEEIKELYENFCFHNGSKNVF [K16F] showed a protein stability index of 3.11.
Variant QELEEEIKELHENFCKHNGSKNVF [Y11H] has a protein stability index of 4.46.
With QELEEEIKELGENFCKHNGSKNVF [Y11G] the protein stability index was 4.74.
Variant QELEEEIKELDENFCKHNGSKNVF [Y11D] has a protein stability index of 5.09.
QELEEEIKELPENFCKHNGSKNVF [Y11P] gave a protein stability index of 5.15.
For QELEEEIKELFENFCKHNGSKNVF [Y11F], the protein stability index was 2.64.
With QELEEEIKELSENFCKHNGSKNVF [Y11S] the protein stability index was 4.61.
QELEEEIKELTENFCKHNGSKNVF [Y11T] gave a protein stability index of 4.3.
Variant QELEEEIKELIENFCKHNGSKNVF [Y11I] has a protein stability index of 3.64.
Variant QELEEEIKELCENFCKHNGSKNVF [Y11C] has a protein stability index of 4.16.
For QELEEEIKELAENFCKHNGSKNVF [Y11A], the protein stability index was 4.25.
QELEEEIKELMENFCKHNGSKNVF [Y11M] gave a protein stability index of 3.96.
In the case of QELEEEIKELVENFCKHNGSKNVF [Y11V], the protein stability index is reported as 3.93.
Work on QELEEEIKELQENFCKHNGSKNVF [Y11Q] yielded a protein stability index of 4.58.
Work on QELEEEIKELNENFCKHNGSKNVF [Y11N] yielded a protein stability index of 4.68.
Work on QELEEEIKELRENFCKHNGSKNVF [Y11R] yielded a protein stability index of 4.39.
Variant QELEEEIKELEENFCKHNGSKNVF [Y11E] has a protein stability index of 4.54.
QELEEEIKELKENFCKHNGSKNVF [Y11K] showed a protein stability index of 4.88.
With QELEEEIKELLENFCKHNGSKNVF [Y11L] the protein stability index was 3.61.
For QELEEEIKELWENFCKHNGSKNVF [Y11W], the protein stability index was 2.96.
With QELEEEVKELYENFCKHNGSKNVF [I7V] the protein stability index was 3.75.
QELEEEWKELYENFCKHNGSKNVF [I7W] showed a protein stability index of 2.26.
Work on QELEEEYKELYENFCKHNGSKNVF [I7Y] yielded a protein stability index of 4.21.
With QELEEETKELYENFCKHNGSKNVF [I7T] the protein stability index was 4.24.
QELEEESKELYENFCKHNGSKNVF [I7S] gave a protein stability index of 4.09.
With QELEEERKELYENFCKHNGSKNVF [I7R] the protein stability index was 4.17.
QELEEEIKEFYENFCKHNGSKNVF [L10F] gave a protein stability index of 3.23.
In the case of QELEEEIKEHYENFCKHNGSKNVF [L10H], the protein stability index is reported as 4.33.
In the case of QELEEEIKEVYENFCKHNGSKNVF [L10V], the protein stability index is reported as 4.12.
Variant QELEEEIKEMYENFCKHNGSKNVF [L10M] has a protein stability index of 3.02.
With QELEEEIKEKYENFCKHNGSKNVF [L10K] the protein stability index was 3.92.
With QELEEEIKEDYENFCKHNGSKNVF [L10D] the protein stability index was 4.46.
For QELEEEIKEGYENFCKHNGSKNVF [L10G], the protein stability index was 4.41.
Variant QELEEEIKEIYENFCKHNGSKNVF [L10I] has a protein stability index of 3.14.
With QELEEEIKECYENFCKHNGSKNVF [L10C] the protein stability index was 4.14.
With QELEEEIKEWYENFCKHNGSKNVF [L10W] the protein stability index was 3.06.
Variant QELEEEIKEEYENFCKHNGSKNVF [L10E] has a protein stability index of 4.5.
QELEEEIKEQYENFCKHNGSKNVF [L10Q] showed a protein stability index of 3.88.
With QELEEEIKEAYENFCKHNGSKNVF [L10A] the protein stability index was 3.48.
QELEEEIKENYENFCKHNGSKNVF [L10N] showed a protein stability index of 4.05.
With QELEEEIKEPYENFCKHNGSKNVF [L10P] the protein stability index was 4.23.
Work on QELEEEIKETYENFCKHNGSKNVF [L10T] yielded a protein stability index of 4.54.
Work on QELEEEIKEYYENFCKHNGSKNVF [L10Y] yielded a protein stability index of 3.92.
Variant QELEEEIKERYENFCKHNGSKNVF [L10R] has a protein stability index of 4.2.
QELEEEIKESYENFCKHNGSKNVF [L10S] showed a protein stability index of 4.25.
For QELEEEIKELYENFRKHNGSKNVF [C15R], the protein stability index was 3.3.
QELEEEIKELYENFHKHNGSKNVF [C15H] showed a protein stability index of 4.12.
With QELEEEIKELYENFSKHNGSKNVF [C15S] the protein stability index was 3.89.
In the case of QELEEEIKELYENFAKHNGSKNVF [C15A], the protein stability index is reported as 3.86.
For QELEEEIKELYENFLKHNGSKNVF [C15L], the protein stability index was 1.97.
For QELEEEIKELYENFFKHNGSKNVF [C15F], the protein stability index was 3.03.
QELEEEIKELYENFIKHNGSKNVF [C15I] gave a protein stability index of 2.07.
With QELEEEIKELYENFVKHNGSKNVF [C15V] the protein stability index was 2.27.
For QELEEEIKELYENFYKHNGSKNVF [C15Y], the protein stability index was 3.77.
QELEEEIKELYENFEKHNGSKNVF [C15E] showed a protein stability index of 3.86.
QELEEEIKELYENFGKHNGSKNVF [C15G] gave a protein stability index of 4.07.
Variant QELEEEIKELYENFMKHNGSKNVF [C15M] has a protein stability index of 2.02.
